Laboratory results from article PMC4945389.

How the values were obtained:
[1] = surface biotinylation, HEK293; conditions: glycan changed form; control: UT-A3 alone
[2] = cycloheximide chase 12 h, Western blot, HEK293; conditions: glycan changed form; control: UT-A3 alone
[3] = surface biotinylation, Xenopus oocytes
[4] = FSK-stimulated surface biotinylation, HEK293; conditions: glycan lost; control: wild type
[5] = FSK-stimulated total UT-A3, Western blot, HEK293; conditions: glycan lost; control: wild type
[6] = glycan lost, control: wild type UT-A3, untreated

B1: UT-A3: ST6GalI co-transfection (protein)
parent chain: MSDHPLKEMSDNNRSPPLPEPLSSRYKLYESELSSPTWPSSSQDTHPALPLLEMPEEKDLRSSDEDSHIVKIEKPNERSKRRESELPRRASAGRGAFSLFQAVSYLTGDMKECKNWLKDKPLVLQFLDWVLRGAAQVMFVNNPLSGLIIFIGLLIQNPWWTIAGALGTVVSTLAALALSQDRSAIASGLHGYNGMLVGLLVAVFSEKLDYYWWLLFPVTFASMACPVISSALSTVFAKWDLPVFTLPFNIALTLYLAATGHYNLFFPTTLVKPASSAPNITWSEIEMPLLLQTIPVGVGQVYGCDNPWTGGVILVALFISSPLICLHAAIGSIVGLLAALTVATPFETIYTGLWSYNCVLSCVAIGGMFYVLTWQTHLLALVCALFCAYTGAALSNMMAVVGVPPGTWAFCLSTLTFLLLTSNNPGIHKLPLSKVTYPEANRIYFLTAKRSDEQKPPNGG
[1]
  localisation_or_trafficking: increases
[2]
  degradation_or_half_life: increases

B2: UT-A3: N279Q (protein)
parent chain: MSDHPLKEMSDNNRSPPLPEPLSSRYKLYESELSSPTWPSSSQDTHPALPLLEMPEEKDLRSSDEDSHIVKIEKPNERSKRRESELPRRASAGRGAFSLFQAVSYLTGDMKECKNWLKDKPLVLQFLDWVLRGAAQVMFVNNPLSGLIIFIGLLIQNPWWTIAGALGTVVSTLAALALSQDRSAIASGLHGYNGMLVGLLVAVFSEKLDYYWWLLFPVTFASMACPVISSALSTVFAKWDLPVFTLPFNIALTLYLAATGHYNLFFPTTLVKPASSAPNITWSEIEMPLLLQTIPVGVGQVYGCDNPWTGGVILVALFISSPLICLHAAIGSIVGLLAALTVATPFETIYTGLWSYNCVLSCVAIGGMFYVLTWQTHLLALVCALFCAYTGAALSNMMAVVGVPPGTWAFCLSTLTFLLLTSNNPGIHKLPLSKVTYPEANRIYFLTAKRSDEQKPPNGG
[3]; [6]
  localisation_or_trafficking: decreases
[4]
  localisation_or_trafficking, other: % increase by FSK: decreases
[5]
  expression_or_secretion, other: % increase by FSK: decreases

B3: UT-A3: ST3GalIV co-transfection (protein)
parent chain: MSDHPLKEMSDNNRSPPLPEPLSSRYKLYESELSSPTWPSSSQDTHPALPLLEMPEEKDLRSSDEDSHIVKIEKPNERSKRRESELPRRASAGRGAFSLFQAVSYLTGDMKECKNWLKDKPLVLQFLDWVLRGAAQVMFVNNPLSGLIIFIGLLIQNPWWTIAGALGTVVSTLAALALSQDRSAIASGLHGYNGMLVGLLVAVFSEKLDYYWWLLFPVTFASMACPVISSALSTVFAKWDLPVFTLPFNIALTLYLAATGHYNLFFPTTLVKPASSAPNITWSEIEMPLLLQTIPVGVGQVYGCDNPWTGGVILVALFISSPLICLHAAIGSIVGLLAALTVATPFETIYTGLWSYNCVLSCVAIGGMFYVLTWQTHLLALVCALFCAYTGAALSNMMAVVGVPPGTWAFCLSTLTFLLLTSNNPGIHKLPLSKVTYPEANRIYFLTAKRSDEQKPPNGG
[1]
  localisation_or_trafficking: no change

B4: UT-A3: tunicamycin (protein)
parent chain: MSDHPLKEMSDNNRSPPLPEPLSSRYKLYESELSSPTWPSSSQDTHPALPLLEMPEEKDLRSSDEDSHIVKIEKPNERSKRRESELPRRASAGRGAFSLFQAVSYLTGDMKECKNWLKDKPLVLQFLDWVLRGAAQVMFVNNPLSGLIIFIGLLIQNPWWTIAGALGTVVSTLAALALSQDRSAIASGLHGYNGMLVGLLVAVFSEKLDYYWWLLFPVTFASMACPVISSALSTVFAKWDLPVFTLPFNIALTLYLAATGHYNLFFPTTLVKPASSAPNITWSEIEMPLLLQTIPVGVGQVYGCDNPWTGGVILVALFISSPLICLHAAIGSIVGLLAALTVATPFETIYTGLWSYNCVLSCVAIGGMFYVLTWQTHLLALVCALFCAYTGAALSNMMAVVGVPPGTWAFCLSTLTFLLLTSNNPGIHKLPLSKVTYPEANRIYFLTAKRSDEQKPPNGG
[3]; [6]
  localisation_or_trafficking: decreases

B5: UT-A3: ST6GalI cRNA co-injection (protein)
parent chain: MSDHPLKEMSDNNRSPPLPEPLSSRYKLYESELSSPTWPSSSQDTHPALPLLEMPEEKDLRSSDEDSHIVKIEKPNERSKRRESELPRRASAGRGAFSLFQAVSYLTGDMKECKNWLKDKPLVLQFLDWVLRGAAQVMFVNNPLSGLIIFIGLLIQNPWWTIAGALGTVVSTLAALALSQDRSAIASGLHGYNGMLVGLLVAVFSEKLDYYWWLLFPVTFASMACPVISSALSTVFAKWDLPVFTLPFNIALTLYLAATGHYNLFFPTTLVKPASSAPNITWSEIEMPLLLQTIPVGVGQVYGCDNPWTGGVILVALFISSPLICLHAAIGSIVGLLAALTVATPFETIYTGLWSYNCVLSCVAIGGMFYVLTWQTHLLALVCALFCAYTGAALSNMMAVVGVPPGTWAFCLSTLTFLLLTSNNPGIHKLPLSKVTYPEANRIYFLTAKRSDEQKPPNGG
[3]; glycan changed form, control: UT-A3 cRNA alone
  localisation_or_trafficking: increases
